Like-named read-outs stand apart in the source and are kept apart here.
How the values were obtained:
APC9182-AA = target: T1, APC9182-AA; assay: two-hybrid library CCmax;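 further: natural log of median RNA to DNA barcode read ratio; higher means stronger binding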
T1 chain: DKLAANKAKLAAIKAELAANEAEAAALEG

APC9291-AA = target: T2, APC9291-AA; assay: two-hybrid library CCmax; conditions: mean of both orientations;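 further: natural log of median RNA to DNA barcode read ratio; higher means stronger binding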
T2 chain: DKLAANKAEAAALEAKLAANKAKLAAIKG

APC9806-AA = target: T3, APC9806-AA; assay: two-hybrid library CCmax; conditions: mean of both orientations;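 further: natural log of median RNA to DNA barcode read ratio; higher means stronger binding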
T3 chain: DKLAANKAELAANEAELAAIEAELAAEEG

4H850-bH = target: T4, 4H850-bH; assay: two-hybrid library CCNG1;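 further: natural log of median RNA to DNA barcode read ratio; higher means stronger binding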
T4 chain: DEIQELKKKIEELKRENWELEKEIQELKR

4H906-bH = target: T5, 4H906-bH; assay: two-hybrid library CCNG1
T5 chain: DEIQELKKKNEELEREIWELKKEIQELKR

4H72-bA = target: T6, 4H72-bA; assay: two-hybrid library CCNG1
T6 chain: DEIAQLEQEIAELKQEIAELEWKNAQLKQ

4H754-bA = target: T7, 4H754-bA; assay: two-hybrid library CCNG1
T7 chain: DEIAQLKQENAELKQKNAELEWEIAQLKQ

4H797-bA = target: T8, 4H797-bA; assay: two-hybrid library CCNG1
T8 chain: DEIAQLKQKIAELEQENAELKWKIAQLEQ

4H883-bA = target: T9, 4H883-bA; assay: two-hybrid library CCNG1
T9 chain: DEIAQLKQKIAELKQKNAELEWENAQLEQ

4H908-bA = target: T10, 4H908-bA; assay: two-hybrid library CCNG1
T10 chain: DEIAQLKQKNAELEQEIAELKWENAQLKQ

4H918-bA = target: T11, 4H918-bA; assay: two-hybrid library CCNG1
T11 chain: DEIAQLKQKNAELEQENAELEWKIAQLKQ

4H953-bA = target: T12, 4H953-bA; assay: two-hybrid library CCNG1
T12 chain: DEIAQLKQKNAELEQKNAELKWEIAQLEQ

4H967-bA = target: T13, 4H967-bA; assay: two-hybrid library CCNG1
T13 chain: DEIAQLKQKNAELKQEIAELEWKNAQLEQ

4H446-AA = target: T14, 4H446-AA; assay: two-hybrid library CCmax
T14 chain: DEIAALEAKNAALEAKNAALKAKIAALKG

4H464-AA = target: T15, 4H464-AA; assay: two-hybrid library CCmax
T15 chain: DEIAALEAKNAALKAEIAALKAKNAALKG

4H483-AA = target: T16, 4H483-AA; assay: two-hybrid library CCmax; conditions: mean of both orientations
T16 chain: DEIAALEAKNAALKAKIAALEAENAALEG

4H63-AA = target: T17, 4H63-AA; assay: two-hybrid library CCmax; conditions: mean of both orientations
T17 chain: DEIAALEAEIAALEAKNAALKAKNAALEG

4H3915-AA = target: T18, 4H3915-AA; assay: two-hybrid library CCmax
T18 chain: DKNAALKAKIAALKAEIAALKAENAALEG

4H3974-AA = target: T19, 4H3974-AA; assay: two-hybrid library CCmax; conditions: mean of both orientations
T19 chain: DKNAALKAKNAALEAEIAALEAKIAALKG

4H432-AA = target: T20, 4H432-AA; assay: two-hybrid library CCmax; conditions: mean of both orientations
T20 chain: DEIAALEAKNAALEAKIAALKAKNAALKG

## DKLAANKAKLAAIKAELAANEAEAAALEG [APC9182-AA]
APC9182-AA
  interaction score: -1.77
APC9291-AA
  interaction score: -1.98
APC9806-AA
  interaction score: -1.59

## DEIQELKKKIEELKRENWELEKEIQELKR [4H850-bH]
4H850-bH
  interaction score: 0.554
4H906-bH
  interaction score: -0.227

## DEIAQLEQEIAELKQEIAELEWKNAQLKQ [4H72-bA]
4H72-bA
  interaction score: 0.83
4H754-bA
  interaction score: -0.173
4H797-bA
  interaction score: -0.956
4H883-bA
  interaction score: 1.05
4H908-bA
  interaction score: -0.464
4H918-bA
  interaction score: -0.479
4H953-bA
  interaction score: -0.161
4H967-bA
  interaction score: -0.0446

## DEIAALEAKNAALEAKNAALKAKIAALKG [4H446-AA]
4H446-AA
  interaction score: -1.68
4H464-AA; mean of both orientations
  interaction score: -1.77
4H483-AA
  interaction score: -2.13
4H63-AA
  interaction score: -1.67

## DKNAALKAKIAALKAEIAALKAENAALEG [4H3915-AA]
4H3915-AA
  interaction score: -0.838
4H3974-AA
  interaction score: -0.146
4H432-AA
  interaction score: -1.16
4H446-AA; mean of both orientations
  interaction score: -1.7
4H63-AA
  interaction score: 0.485

## DEIAALEAKNAALKAEIAALKAKNAALKG [4H464-AA]
4H464-AA
  interaction score: -1.22
4H483-AA
  interaction score: -0.618
4H63-AA
  interaction score: -1.22

Source: PMC10397247
